Tests used:
[1] = biological target: recombinant CD89 (Fc-alpha receptor, FcαRI) with C-terminal His-tag (UniProt P24071 22-227); test: SPR
[2] = biological target: receptor binding domain (RBD) of the SARS-CoV-2 spike protein with C-terminal 6xHis-tag (SARS-CoV-2, UniProt P0DTC2 319-541); test: SPR

Chain of recombinant CD89 (Fc-alpha receptor, FcαRI) with C-terminal His-tag (P24071 22-227): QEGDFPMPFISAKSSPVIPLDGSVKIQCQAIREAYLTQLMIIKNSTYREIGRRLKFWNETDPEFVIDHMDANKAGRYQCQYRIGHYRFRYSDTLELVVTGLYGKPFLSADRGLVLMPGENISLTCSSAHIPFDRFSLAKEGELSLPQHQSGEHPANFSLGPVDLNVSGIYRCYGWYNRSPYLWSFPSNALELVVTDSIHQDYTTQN

B1: COVA2-15 monomeric IgA2 (antibody)
chain 1: QVQLLESGGGLVQPGGSLRLSCAASGFTFSSYAMSWVRQAPGKGLEWASAISGSGGSTYYADSVEGRFTISRDNSKNTLYLQMNSLRAEDTAVYYCAKDTGYCGDDCYIKLIRGGPDYWGQGTLVTVSS
chain 2: DIVMTQSPLSLPVTLGQPASISCRSSQSLVYSDGNTFLNWFQQRPGQSPRRLIYQVSNRDSGVPDRFSGSGSGTDFTLKISRVEAEDVGVYYCMQGTHWPRTFGQGTKLEIK
Kd [1]: 35.7 nM
Kd [2]: 1.56 nM

Reference: PMC10953500 (2024)
